# According to patent publication US20030194743A1 (DYAX, published 2003):
# Primed or numbered codes have the meaning given here. No end group written: not given here. FITC′ = fluorescein label (fitc)
# Target: T1, B lymphocyte stimulator protein (BLyS) (UniProt Q9Y275 134-285, biotinylated (b-BLyS) in phage screening and phage ELISA; unlabeled in fluorescence anisotropy and column tests)
# T1 construct: also called b-BLyS; biotinylated recombinant BLyS
# Test: not stated at this place (fluorescence anisotropy elsewhere); reference in indirect phage ELISA
row,Kd,Binder
1,700 nM,VPFCDLLTKHCFEA (also called TN8-01-B07) [453-01-B07]

# Target: T1, B lymphocyte stimulator protein (BLyS)
# Test: phage ELISA on biotinylated BLyS
row,ELISA signal,Binder
1,1 OD630,GGNCYTDSLTKLHFCMGD (also called TN12-01-H05) [453-01-H05]
2,1 OD630,SRLCHMDELTHVCVHF (also called TN10-01-F05) [453-01-F05]
3,1 OD630,AMKCYFPWECANG (also called TN7-01-D11) [453-01-D11]
4,0.8 OD630,KSKCFFPWECQQA (also called TN7-01-B04) [453-01-B04]
5,0.8 OD630,LNACDIVHPNYCSGM (also called TN9-01-011) [453-01-G11]
6,0.6 OD630,VHYDSLTKMWTR (also called PhD-02-B05) [453-02-B05]
7,1.2 OD630,KEPCYFYWECAVS (also called TN7-01-A08) [453-01-A08]
8,1.4 OD630,VPFCDLLTKHCFEA (also called TN8-01-B07) [453-01-B07]
9,0.8 OD630,GYDVLTKLYFVP (also called PhD-02-C12) [453-02-C12]
10,1.2 OD630,HVDCLLHPKACYKY (also called TN8-01-C08) [453-01-C08]
11,1.2 OD630,FHPCDMLTGIWCQPN (also called TN9-01-G06) [453-01-G06]
12,0.6 OD630,GIYDKLTRAWLP (also called PhD-02-B02) [453-02-B02]
13,0.8 OD630,YFDQLTHLSIKK (also called PhD-02-D05) [453-02-D05]
14,1 OD630,WTDSLTGLWFPD (also called PhD-02-C04) [453-02-C04]

# Target: T1, B lymphocyte stimulator protein (BLyS)
# Test: fluorescence anisotropy
row,Kd,Binder
1,171 nM,Ac-WYDPLTKLWLGGK(FITC′) (synthetic) [DX876]

# Target: T1, B lymphocyte stimulator protein (BLyS)
# Test: fluorescence anisotropy
# Remark: another data set of the same source
row,Kd,Binder
1,3000 nM,"Ac-WTDSLTGLWFPDGGPGPEGGGK (also: fluorescein-labeled, site not given here, synthetic) [DX221]"
